Assay [1] concerns the target T1, recombinant human CD64 expressed on the surface of CHO cells (human, UniProt P12314 16-374).
T1 construct: whole, on cells; also called huCD64
In words: flow cytometry, CHO-huCD64 cells, apparent KD; SD 6.6. Background: In flow cytometry, cells or beads pass a laser one at a time.

The target of assay [2] is T2, recombinant human NKp46 expressed on the surface of CHO cells (human, UniProt O76036 22-304).
T2 construct: whole, on cells; also called huNKp46; CD355
In words: flow cytometry, CHO-huNKp46 cells, apparent KD; SD 3.7.

Assay [3] addresses T3, recombinant human CD16A (48R/158F) expressed on the surface of CHO cells (human, UniProt P08637 17-254).
T3 construct: also called huCD16A; CD16A (158F)
The experiment in a line: flow cytometry, CHO-huCD16A cells, apparent KD; SD n.a.

The target of assay [4] is T4, recombinant human CD32A expressed on the surface of CHO cells (human, UniProt P12318 34-317).
T4 construct: whole, on cells; also called huCD32A
T4 sequence (looked up): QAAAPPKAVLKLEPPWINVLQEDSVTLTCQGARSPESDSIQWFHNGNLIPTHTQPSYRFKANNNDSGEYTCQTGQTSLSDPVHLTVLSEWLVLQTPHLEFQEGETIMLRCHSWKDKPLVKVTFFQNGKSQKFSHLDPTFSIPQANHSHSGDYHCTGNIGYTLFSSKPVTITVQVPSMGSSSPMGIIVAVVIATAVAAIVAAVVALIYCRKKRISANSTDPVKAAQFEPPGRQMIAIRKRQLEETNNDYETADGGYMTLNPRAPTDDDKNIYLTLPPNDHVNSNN
The experiment in a line: flow cytometry, CHO-huCD32A cells, apparent KD; SD 64.3.

In assay [5] the target is T1, recombinant human CD64 expressed on the …. The experiment in a line: flow cytometry, CHO-huCD64 cells, apparent KD; SD 7.7. The procedure:
(§1) The CHO cells were incubated with serial dilutions of the indicated trispecific constructs and control constructs at 37° C., and cell surface bound antibodies were detected by FITC-conjugated goat anti-human IgG Fc and flow cytometric analysis. Measured median fluorescence intensity values were used to calculate apparent affinities (KD) by non-linear regression.

The target in assay [6] is T5, recombinant human NKG2D expressed on the surface of CHO cells (human, UniProt P26718 1-216).
T5 construct: whole, on cells; also called huNKG2D; CD314
T5 sequence (looked up): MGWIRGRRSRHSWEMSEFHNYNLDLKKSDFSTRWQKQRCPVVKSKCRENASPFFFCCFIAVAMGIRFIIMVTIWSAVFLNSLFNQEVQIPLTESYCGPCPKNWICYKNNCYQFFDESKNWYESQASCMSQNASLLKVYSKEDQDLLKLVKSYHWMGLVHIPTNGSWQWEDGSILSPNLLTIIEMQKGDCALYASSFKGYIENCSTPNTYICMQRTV
In words: flow cytometry, CHO-huNKG2D cells, apparent KD; SD 6.8. On the procedure:
as §1

In assay [7] the target is T4, recombinant human CD32A expressed on …. The experiment in a line: flow cytometry, CHO-huCD32A cells, apparent KD; SD n.a. On the procedure:
as §1

Assay [8] has as its target T1, recombinant human CD64 expressed on the …. The experiment in a line: flow cytometry, CHO-huCD64 cells, apparent KD; SD 5.8.
For assay [9], the target named is T2, recombinant human NKp46 expressed on …. In words: flow cytometry, CHO-huNKp46 cells, apparent KD; SD 1.9.
Assay [10] deals with T4, recombinant human CD32A expressed on …. In words: flow cytometry, CHO-huCD32A cells, apparent KD; SD 2169.4.
The target in assay [11] is T5, recombinant human NKG2D expressed on …. In words: flow cytometry, CHO-huNKG2D cells, apparent KD; SD 16.2. The procedure:
as §1

For assay [12], the target named is T1, recombinant human CD64 expressed on the …. The experiment in a line: flow cytometry, CHO-huCD64 cells, apparent KD; SD 7.6. The procedure: as §1
Assay [13] has the same target. The experiment in a line: flow cytometry, CHO-huCD64 cells, apparent KD; SD 3.4. On the procedure:
as §1

In assay [14] the target is T4, recombinant human CD32A expressed on …. The experiment in a line: flow cytometry, CHO-huCD32A cells, apparent KD; SD 236.8. The procedure:
as §1

Assay [15] deals with T2, recombinant human NKp46 expressed on …. In words: flow cytometry, CHO-huNKp46 cells, apparent KD; SD 2.8. The procedure: as §1
The target of assay [16] is T1, recombinant human CD64 expressed on the …. In words: flow cytometry, CHO-huCD64 cells, apparent KD; SD 2.7. The procedure: as §1
In assay [17] the target is T4, recombinant human CD32A expressed on …. In words: flow cytometry, CHO-huCD32A cells, apparent KD; SD 405.5. The procedure: as §1

Data on six molecules can be found in patent US20230365709A1 (published 2023).

T1 sequence (P12314 16-374): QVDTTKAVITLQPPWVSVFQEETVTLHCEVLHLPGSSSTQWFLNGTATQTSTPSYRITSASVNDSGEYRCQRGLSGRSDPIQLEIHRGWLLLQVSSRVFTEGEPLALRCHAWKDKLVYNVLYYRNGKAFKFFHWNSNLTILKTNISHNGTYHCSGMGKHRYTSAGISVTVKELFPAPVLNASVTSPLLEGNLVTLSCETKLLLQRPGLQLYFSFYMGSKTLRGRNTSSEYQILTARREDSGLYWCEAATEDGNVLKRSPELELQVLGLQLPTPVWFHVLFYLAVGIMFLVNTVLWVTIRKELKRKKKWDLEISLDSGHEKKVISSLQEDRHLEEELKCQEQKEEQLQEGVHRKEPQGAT
T2 sequence (O76036 22-304): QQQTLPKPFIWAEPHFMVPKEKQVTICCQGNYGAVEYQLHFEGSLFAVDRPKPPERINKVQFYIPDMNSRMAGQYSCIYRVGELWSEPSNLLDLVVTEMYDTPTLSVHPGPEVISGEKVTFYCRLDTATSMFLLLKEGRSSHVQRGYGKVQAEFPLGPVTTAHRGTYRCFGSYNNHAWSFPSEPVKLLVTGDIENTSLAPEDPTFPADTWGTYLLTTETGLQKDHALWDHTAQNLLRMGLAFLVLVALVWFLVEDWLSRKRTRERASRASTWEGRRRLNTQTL

B1: scFv-IgAb-396 (bispecific antibody)
chain 1: not shown
chain 2: DIVMTQSPATLSLSPGERATLSCRSSKSLQNVNGNTYLYWFQQKPGQSPQLLIYRMSNLNSGVPDRFSGSGSGTEFTLTISSLEPEDFAVYYCMQHLEYPITFGAGTKLEIKRTVAAPSVFIFPPSDEQLKSGTASVVCLLNNFYPREAKVQWKVDNALQSGNSQESVTEQDSKDSTYSLSSTLTLSKADYEKHKVYACEVTHQGLSSPVTKSFNRGEC
Consider B1, for which the Kd in assay [1] was determined as 34.1 nM; in [2], 9.8 nM; in assay [3] it was 5190 nM; in assay [4], 374 nM.

B2: AIG-1scFv-6 (ComparatorB_2) (bispecific antibody, human IgG1, kappa)
heavy 1: not shown
light: DIVMTQSPATLSLSPGERATLSCRSSKSLQNVNGNTYLYWFQQKPGQSPQLLIYRMSNLNSGVPDRFSGSGSGTEFTLTISSLEPEDFAVYYCMQHLEYPITFGAGTKLEIKRTVAAPSVFIFPPSDEQLKSGTASVVCLLNNFYPREAKVQWKVDNALQSGNSQESVTEQDSKDSTYSLSSTLTLSKADYEKHKVYACEVTHQGLSSPVTKSFNRGEC
heavy 2: not shown
notes: CD19, wt Fc, NKG2D(ADI-27743)
As for B2, the values for the Kd in [5], in [6] and in assay [7] were 22.8 nM, 22.3 nM and 2530 nM, respectively.

B3: scFv-IgAb-395 (bispecific antibody)
chain 1: not shown
chain 2: DIVMTQSPATLSLSPGERATLSCRSSKSLQNVNGNTYLYWFQQKPGQSPQLLIYRMSNLNSGVPDRFSGSGSGTEFTLTISSLEPEDFAVYYCMQHLEYPITFGAGTKLEIKRTVAAPSVFIFPPSDEQLKSGTASVVCLLNNFYPREAKVQWKVDNALQSGNSQESVTEQDSKDSTYSLSSTLTLSKADYEKHKVYACEVTHQGLSSPVTKSFNRGEC
For the molecule B3, the Kd in assay [8] came to 42.3 nM; in [9], 5.7 nM; in assay [10], 5630 nM.

B4: AIG-1scFv-5 (ComparatorB_1) (bispecific antibody, human IgG1, kappa)
heavy 1: not shown
light: DIVMTQSPATLSLSPGERATLSCRSSKSLQNVNGNTYLYWFQQKPGQSPQLLIYRMSNLNSGVPDRFSGSGSGTEFTLTISSLEPEDFAVYYCMQHLEYPITFGAGTKLEIKRTVAAPSVFIFPPSDEQLKSGTASVVCLLNNFYPREAKVQWKVDNALQSGNSQESVTEQDSKDSTYSLSSTLTLSKADYEKHKVYACEVTHQGLSSPVTKSFNRGEC
heavy 2: not shown
notes: CD19, wt Fc, NKG2D(KYK-2.0)
B4: the values for the Kd in assay [11], in assay [12] and in assay [7] were 28.5 nM, 27.4 nM and 2470 nM, respectively.

B5: 1Fab-AFc-1Fab-5 (bispecific antibody, human IgG1, kappa)
chain 1: DIVMTQSPATLSLSPGERATLSCRSSKSLQNVNGNTYLYWFQQKPGQSPQLLIYRMSNLNSGVPDRFSGSGSGTEFTLTISSLEPEDFAVYYCMQHLEYPITFGAGTKLEIKRTVAAPSVFIFPPSDEQLKSGTASVVCLLNNFYPREAKVQWKVDNALQSGNSQESVTEQDSKDSTYSLSSTLTLSKADYEKHKVYACEVTHQGLSSPVTKSFNRGECDKTHTCPPCPAPELLGGPDVFLFPPKPKDTLMISRTPEVTCVVVDVSHEDPEVKFNWYVDGVEVHNAKTKPREEQYNSTYRVVSVLTVLHQDWLNGKEYKCKVSNKALPAPEEKTISKAKGQPREPQVYTLPPSREEMTKNQVSLWCLVKGFYPSDIAVEWESNGQPENNYKTTPPVLDSDGSFFLYSKLTVDKSRWQQGNVFSCSVMHEALHNHYTQKSLSLSPGK
chain 2: EVQLVESGGGLVKPGGSLKLSCAASGYTFTSYVMHWVRQAPGKGLEWIGYINPYNDGTKYNEKFQGRVTISSDKSISTAYMELSSLRSEDTAMYYCARGTYYYGTRVFDYWGQGTLVTVSSASTKGPSVFPLAPSSKSTSGGTAALGCLVKDYFPEPVTVSWNSGALTSGVHTFPAVLQSSGLYSLSSVVTVPSSSLGTQTYICNVNHKPSNTKVDKKVEPKSCDKTHTCPPCPAPELLGGPDVFLFPPKPKDTLMISRTPEVTCVVVDVSHEDPEVKFNWYVDGVEVHNAKTKPREEQYNSTYRVVSVLTVLHQDWLNGKEYKCKVSNKALPAPEEKTISKAKGQPREPQVYTLPPSREEMTKNQVSLSCAVKGFYPSDIAVEWESNGQPENNYKTTPPVLDSDGSFFLVSKLTVDKSRWQQGNVFSCSVMHEALHNHYTQKSLSLSPGSTGSQVQLQQSGPELVKPGASVKMSCKASGYTFTDYVINWGKQRSGQGLEWIGEIYPGSGTNYYNEKFKAKATLTADKSSNIAYMQLSSLTSEDSAVYFCARRGRYGLYAMDYWGQGTSVTVSSRTVAAPSVFIFPPSDEQLKSGTASVVCLLNNFYPREAKVQWKVDNALQSGNSQESVTEQDSKDSTYSLSSTLTLSKADYEKHKVYACEVTHQGLSSPVTKSFNRGEC
chain 3: DIQMTQTTSSLSASLGDRVTISCRASQDISNYLNWYQQKPDGTVKLLIYYTSRLHSGVPSRFSGSGSGTDYSLTINNLEQEDIATYFCQQGNTRPWTFGGGTKLEIKASTKGPSVFPLAPSSKSTSGGTAALGCLVKDYFPEPVTVSWNSGALTSGVHTFPAVLQSSGLYSLSSVVTVPSSSLGTQTYICNVNHKPSNTKVDKKVEPKSCDKTH
notes: CD19, Fc-enhanced Fc, NKp46(NKp46-1); also called ComparatorA_5
As for B5, the Kd in assay [13] is 15.9 nM; in [14] it was 1050 nM.

B6: 1Fab-AFc-1Fab-6 (bispecific antibody, human IgG1, kappa)
chain 1: DIVMTQSPATLSLSPGERATLSCRSSKSLQNVNGNTYLYWFQQKPGQSPQLLIYRMSNLNSGVPDRFSGSGSGTEFTLTISSLEPEDFAVYYCMQHLEYPITFGAGTKLEIKRTVAAPSVFIFPPSDEQLKSGTASVVCLLNNFYPREAKVQWKVDNALQSGNSQESVTEQDSKDSTYSLSSTLTLSKADYEKHKVYACEVTHQGLSSPVTKSFNRGECDKTHTCPPCPAPELLGGPDVFLFPPKPKDTLMISRTPEVTCVVVDVSHEDPEVKFNWYVDGVEVHNAKTKPREEQYNSTYRVVSVLTVLHQDWLNGKEYKCKVSNKALPAPEEKTISKAKGQPREPQVYTLPPSREEMTKNQVSLWCLVKGFYPSDIAVEWESNGQPENNYKTTPPVLDSDGSFFLYSKLTVDKSRWQQGNVFSCSVMHEALHNHYTQKSLSLSPGK
chain 2: EVQLVESGGGLVKPGGSLKLSCAASGYTFTSYVMHWVRQAPGKGLEWIGYINPYNDGTKYNEKFQGRVTISSDKSISTAYMELSSLRSEDTAMYYCARGTYYYGTRVFDYWGQGTLVTVSSASTKGPSVFPLAPSSKSTSGGTAALGCLVKDYFPEPVTVSWNSGALTSGVHTFPAVLQSSGLYSLSSVVTVPSSSLGTQTYICNVNHKPSNTKVDKKVEPKSCDKTHTCPPCPAPELLGGPDVFLFPPKPKDTLMISRTPEVTCVVVDVSHEDPEVKFNWYVDGVEVHNAKTKPREEQYNSTYRVVSVLTVLHQDWLNGKEYKCKVSNKALPAPEEKTISKAKGQPREPQVYTLPPSREEMTKNQVSLSCAVKGFYPSDIAVEWESNGQPENNYKTTPPVLDSDGSFFLVSKLTVDKSRWQQGNVFSCSVMHEALHNHYTQKSLSLSPGSTGSEVQLQQSGPELVKPGASVKISCKTSGYTFTEYTMHWVKQSHGKSLEWIGGISPNIGGTSYNQKFKGKATLTVDKSSSTAYMELRSLTSEDSAVYYCARRGGSFDYWGQGTTLTVSSRTVAAPSVFIFPPSDEQLKSGTASVVCLLNNFYPREAKVQWKVDNALQSGNSQESVTEQDSKDSTYSLSSTLTLSKADYEKHKVYACEVTHQGLSSPVTKSFNRGEC
chain 3: DIVMTQSPATLSVTPGDRVSLSCRASQSISDYLHWYQQKSHESPRLLIKYASQSISGIPSRFSGSGSGSDFTLSINSVEPEDVGVYYCQNGHSFPLTFGAGTKLELKASTKGPSVFPLAPSSKSTSGGTAALGCLVKDYFPEPVTVSWNSGALTSGVHTFPAVLQSSGLYSLSSVVTVPSSSLGTQTYICNVNHKPSNTKVDKKVEPKSCDKTH
notes: CD19, Fc-enhanced Fc, NKp46(NKp46-3); also called ComparatorA_6
As to B6, the Kd in [15] amounted to 45.8 nM; in [16] it was 12.6 nM; in [17] it was 1010 nM.
